Key:
[1] = target: T1, F-actin from chicken breast muscle (chicken (endogenous in breast muscle), UniProt P68139 1-377); assay: cell-based or functional assay
[2] = target: T1, F-actin from chicken breast muscle; assay: co-sedimentation

actin activation of the MgATPase activity of 110K-CM, F-actin 0.1 to 60 uM, 35C [1]: 2.5 to 3.5 fold | mass ratio of 110K-CM to actin at apparent saturation [2]: ~20 110K-CM:actin by mass
B1: 110-kD protein-calmodulin complex of the intestinal microvillus (complex)
chain 1: MEATTSLLDAAAVGDLVMLDPLSEESLLRTLQERFSRGEIYTYIGEVVISVNPYKPLPIYTPEKVEEYHNCNFFAVKPHIYAIADDAYRSLRDRDRDQCILITGESGAGKTEASKLVMSYVAAVSSKGEEVDKVKEQLLQSNPVLEAFGNAKTIRNDNSSRFGKYMDVEFDFKGDPLGGVISNYLLEKSRIVRHVKGERNFHIFYQLLAGGSAQLLQQLKLRPDCSHYGYLNHEKSVLPGMDDAANFRAMQDAMAIIGFAPAEVTALLEVTAVVLKLGNVKLSSCFQASGMEASSITEPRELQEISQLIGLDPSTLEQALCSRTVKVRDESVLTALSVSQGYYGRDALAKNIYSRLFDWLVNRINTSIQVKPGKQRKVMGVLDIYGFEIFQDNGFEQFIINYCNEKLQQIFILMTLKEEQEEYVREGIQWTPVEFFDNSIICDLIENSKVGILAMLDEECLRPGTVNEDTFITKLNQIFASHKRYESKETLNAKHVTDVSLPLRCFRIHHYAGKVTYNVTGFIEKNNDLLFRDLSQAMWAARHTLLRSLFPEGDPQRPSLKLPPTTGSQFKASVATLMKNLYSKNPNYIRCIKPNDTKTAMLFTPDLVLAQVRYLGLMENVRVRRAGYAFRQLYQPFLERYKMLSRKTWPRWTGGDREGAEVLLAELKFPPEELAYGHTKIFIRSPRTLFDLEKRRQQRVAELATLIQKMFRGWCCRKRYQLMRKSQILISAWFRGHMQRNRYKQMKRSVLLLQAYARGWKTRRMYRRYFRSDACTRLSNFIYRRMVQKYLMGLQKNLPPMAVLDRTWPPAPYKFLSDANQELKSIFYRWKCKKYREQLTPQQRAMLQAKLCASELFKDKKALYAQSLQQPFRGEYLGLTQNRKYQKLQAVAKDKLVMAEAVQKVNRANGKTVPRLLLLTTEHLVLADPKAAQPKMVLSLCDIQGASVSRFSDGLLALHLKETSTAGGKGDLLLVSPHLIELVTRLHQTLMDATAQALPLSIADQFSTRFPKGDVAVTVVESAKGGGDVPVCKKRGSHKMEILVH
chain 2: […]

Source: publication PMC2114910 (The Journal of Cell Biology, 1987)
